Positions count from the first letter of the chain named.
B1: CHA.7.516 (antibody, V domains shown)
VH: QVQLQQSGPELVRPGVSVKISCKVSGYTFTDYVMHWVKQSHAKSLEWIGIISPYSGNTNYNQNFKGKATMTVDKSSSTAYMALARLTSEDSAIYYCAREGDLPMFAYWGQGTLVTVSA
VL: QIVLTQSPTIMSASPGEKVTMTCSASSSVSYIYWYQQNPGSSPRLLIYDTSILASGVPFRFSGSGSGTSYSLTISRMEAEDAATYYCQQWTSYPLTFGSGTKLELK
B2: CHA.7.524 (antibody, V domains shown)
VH: B1 VH with L11V, V24G, T28K, T30P, P53I, N63K, A82E
VL: QIVLTQSPAIMSASPGEKVTMTCNASSSVSYMYWYQQKPISSPRLLIYDTSNLASGVPVRFSGSGSGTSYSLTIGRMEAEDAATYYCQQWSSYPLTFGAGTKVEVK
B3: CHA.7.528 (antibody, V domains shown)
VH: EVQVQQSGPELVKPGASVKISCKASGYTFTKSNMHWVKQSHGKSLEWIGYIYPYNGGTGYNQNFKSKATLTVDISSSTAYMELRSLTLEDSAVYLCAREADYYGNRGQFDYWGQGTLVTVSA
VL: DIQMTQSPASLSVSVGETVTITCRASDNIFSNLAWYHQKQGKSPHLLVYGATNLADGVPSRFSGSGSGTQYSLKINSLQSEDFGDYYCQHFWGTPYTFGGGTKLEIK
B4: CHA.7.530 (antibody, V domains shown)
VH: QVQLQQSGAELMRPGTSVKVSCKASGYAFTNHLIEWIKQRPGQGLEWIGVINPGSDSTDYNEKFKDKATLTADKSSSTAYMQLSSLTSDDSAVYFCARSLYYNSWFVYWGQGTLVTVSA
VL: DIQMTQSPASLSASVGETVTITCRASENIYSYLAWYQQKRGKSPQLLVYNAKTLVEGVPSRFSGSGSGTQFSLKINSLQPEDFGSYYCQHHYGTPYTFGGGTKLEIK
B5: CHA.7.537 (antibody, V domains shown)
VH: QVQLKESGPGLVAPSQSLSITCTVSGFSLIGHGVNWIRQPPGKGLEWLGVIWGDGNTDYNSALKSRLSISKDNSKSQVFLKMNSLQTDDTARYFCAVNSAMDYWGQGTAVTVSS
VL: NIVMTQSPKSMSMSVGERVTLNCTASENVASFVSWYQQKPEQSPKLLIYGTSNRYTGVPDRFTGSGSATDFTLTISSVQAEDLGDYHCGQSYNYPFTFGSGTKLEIE

molecular target: T1, human PVRIG on cells (human, UniProt Q6DKI7 1-326); assay: FACS, HEK hPVRIG cells (HEK OE)
T1 construct: whole, on cells; over-expressed on HEK cells or endogenous on Jurkat and CD8 T cells; also called hPVRIG; HEK hPVRIG cells
T1 sequence (looked up): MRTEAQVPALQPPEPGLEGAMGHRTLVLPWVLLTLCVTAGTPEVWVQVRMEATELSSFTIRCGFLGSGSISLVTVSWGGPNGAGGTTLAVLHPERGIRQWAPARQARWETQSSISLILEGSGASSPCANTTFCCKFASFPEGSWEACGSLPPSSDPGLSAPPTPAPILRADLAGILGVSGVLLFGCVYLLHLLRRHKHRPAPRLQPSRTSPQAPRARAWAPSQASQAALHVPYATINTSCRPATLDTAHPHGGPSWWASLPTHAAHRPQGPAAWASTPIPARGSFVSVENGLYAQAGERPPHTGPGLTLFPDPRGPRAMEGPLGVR

| Binder | EC50 [nM] |
| --- | --- |
| B1 | 0.79 |
| B2 | 0.46 |
| B3 | 7.31 |
| B4 | 0.33 |
| B5 | 2.47 |

molecular target: T2, cynomolgus PVRIG on cells (cynomolgus, UniProt A0A2K5WVV8 41-322); assay: FACS, cyno PBMC, NK cells, 10ug/ml
T2 construct: whole, on cells; also called cPVRIG; expi cPVRIG cells
T2 sequence: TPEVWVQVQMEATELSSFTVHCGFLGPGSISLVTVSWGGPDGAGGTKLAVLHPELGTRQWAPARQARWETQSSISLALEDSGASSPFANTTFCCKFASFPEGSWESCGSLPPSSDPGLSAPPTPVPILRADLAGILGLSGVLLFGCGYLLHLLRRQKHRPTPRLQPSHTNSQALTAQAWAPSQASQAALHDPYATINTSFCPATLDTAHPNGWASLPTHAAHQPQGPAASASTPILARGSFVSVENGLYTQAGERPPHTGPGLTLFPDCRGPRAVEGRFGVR

| Binder | gMFIr Cyno NK cells |
| --- | --- |
| B2 | 1.78 |
| B3 | 1.21 |
| B4 | 1.73 |
| B5 | 1.18 |

molecular target: T2, cynomolgus PVRIG on cells; assay: FACS, cyno PBMC, NK cells, 10ug/ml; remark: another data set of the same source

| Binder | gMFIr Cyno NK cells |
| --- | --- |
| B1 | 1.76 |
| B2 | 1.78 |
| B3 | 1.21 |
| B4 | 1.73 |
| B5 | 1.18 |

molecular target: T2, cynomolgus PVRIG on cells; assay: FACS, cyno PBMC, CD8+ T cells, 10ug/ml

| Binder | gMFIr Cyno CD8+ T cells |
| --- | --- |
| B2 | 2.02 |
| B3 | 1.18 |
| B4 | 1.89 |
| B5 | 1.19 |

molecular target: T2, cynomolgus PVRIG on cells; assay: FACS, cyno PBMC, CD8+ T cells, 10ug/ml; remark: another data set of the same source

| Binder | gMFIr Cyno CD8+ T cells |
| --- | --- |
| B1 | 2.09 |
| B2 | 2.02 |
| B3 | 1.18 |
| B4 | 1.89 |
| B5 | 1.19 |

molecular target: T1, human PVRIG on cells; assay: FACS, human PBMC, CD8+ T cells, 10ug/ml

| Binder | gMFIr Human CD8+ T cells |
| --- | --- |
| B1 | 4.09 |

molecular target: T1, human PVRIG on cells; assay: FACS, human PBMC, CD8+ T cells, 10ug/ml; remark: another data set of the same source

| Binder | gMFIr Human CD8+ T cells |
| --- | --- |
| B2 | 6.12 |
| B3 | 3.63 |
| B4 | 6.47 |
| B5 | 3.41 |

molecular target: T1, human PVRIG on cells; assay: FACS, human PBMC, CD8+ T cells, 10ug/ml; remark: another data set of the same source

| Binder | gMFIr Human CD8+ T cells |
| --- | --- |
| B1 | 4.09 |
| B2 | 6.12 |
| B3 | 3.63 |
| B4 | 6.47 |
| B5 | 3.41 |

molecular target: T1, human PVRIG on cells; assay: FACS, human PBMC, CD56 int. NK cells, 10ug/ml

| Binder | gMFIr Human CD56 int. NK |
| --- | --- |
| B1 | 4.22 |

molecular target: T1, human PVRIG on cells; assay: FACS, human PBMC, CD56 int. NK cells, 10ug/ml; remark: another data set of the same source

| Binder | gMFIr Human CD56 int. NK |
| --- | --- |
| B2 | 5.5 |
| B3 | 3.08 |
| B4 | 6.04 |
| B5 | 3.9 |

molecular target: T1, human PVRIG on cells; assay: FACS, human PBMC, CD56 int. NK cells, 10ug/ml; remark: another data set of the same source

| Binder | gMFIr Human CD56 int. NK |
| --- | --- |
| B1 | 4.22 |
| B2 | 5.5 |
| B3 | 3.08 |
| B4 | 6.04 |
| B5 | 3.9 |

molecular target: T1, human PVRIG on cells; assay: FACS, Jurkat cells, relative to control, 3.3ug/ml

| Binder | gMFIr Jurkat |
| --- | --- |
| B1 | 5.73 |
| B2 | 7.87 |
| B3 | 6.17 |
| B4 | 8.04 |
| B5 | 5.53 |

molecular target: T1, human PVRIG on cells; assay: FACS, HEK hPVRIG over HEK parental cells, 3.3ug/ml

| Binder | gMFIr HEK OE/par |
| --- | --- |
| B1 | 37.9 |
| B2 | 48.3 |
| B3 | 44.9 |
| B4 | 51.1 |
| B5 | 36.6 |

molecular target: T2, cynomolgus PVRIG on cells; assay: FACS, expi cPVRIG over expi parental cells, 3.3ug/ml

| Binder | gMFIr Expi cyno OE/par |
| --- | --- |
| B1 | 60 |

molecular target: T2, cynomolgus PVRIG on cells; assay: as above; remark: another data set of the same source

| Binder | gMFIr Expi cyno OE/par |
| --- | --- |
| B2 | 66.3 |
| B3 | 12.2 |
| B4 | 60.8 |
| B5 | 1.55 |

molecular target: T2, cynomolgus PVRIG on cells; assay: as above; remark: another data set of the same source

| Binder | gMFIr Expi cyno OE/par |
| --- | --- |
| B1 | 60 |
| B2 | 66.3 |
| B3 | 12.2 |
| B4 | 60.8 |
| B5 | 1.55 |

molecular target: T3, PVRIG (FACS-based competition assay of FIGS. 7 and 15) (Homo sapiens, UniProt Q6DKI7); assay: FACS-based competition assay of PVRIG blocking; format and competitor not given
T3 construct: made because the format of the assay is only described in U.S. Ser. No. 15/048,967; also called human PVRIG
T3 sequence (receptor, looked up): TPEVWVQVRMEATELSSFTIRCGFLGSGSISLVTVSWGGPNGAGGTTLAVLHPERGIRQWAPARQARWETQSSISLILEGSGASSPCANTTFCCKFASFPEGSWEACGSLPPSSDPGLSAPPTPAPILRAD

| Binder | IC50 [nM] |
| --- | --- |
| B1 | 33.1 |
| B2 | 30.2 |
| B3 | 28.9 |
| B4 | 34.6 |
| B5 | 39 |

molecular target: T3, PVRIG (FACS-based competition assay of …); assay: as above; remark: another data set of the same source

| Binder | IC50 [nM] |
| --- | --- |
| B1 | 33.1 |
| B2 | 30.2 |
| B3 | 28.9 |
| B4 | 34.6 |
| B5 | 39 |

Source: US20240075137A1 (COMPUGEN, published 2024)
